Target: the molecule itself
Assay: negative staining electron microscopy

B1: SepF (purified, freed from MBP-SepF by factor Xa) (natural protein, B. subtilis, UniProt O31728 1-151, looked up)
chain: MSMKNKLKNFFSMEDEEYEYEYIETERESHEEHEQKEKPAYNGNKPAGKQNVVSLQSVQKSSKVVLSEPRVYAEAQEIADHLKNRRAVVVNLQRIQHDQAKRIVDFLSGTVYAIGGDIQRIGSDIFLCTPDNVDVSGTISELISEDEHQRW
B1: binds.

Source: article PMC9320952 (Molecular Microbiology, 2022)
